Laboratory results reported in patent publication US20130064834A1 (published 2013).

B1: H1H316P (antibody, V domains shown)
VH: EVQLVESGGGLVQPGGSLRLSCAASGFTFNNYAMNWVRQAPGKGLDWVSTISGSGGTTNYADSVKGRFIISRDSSKHTLYLQMNSLRAEDTAVYYCAKDSNWGNFDLWGRGTLVTVSS
VL: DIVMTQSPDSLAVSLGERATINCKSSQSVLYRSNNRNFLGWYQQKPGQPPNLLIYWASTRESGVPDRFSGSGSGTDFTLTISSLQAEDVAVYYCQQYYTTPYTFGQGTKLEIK
notes: Fully human mAb made in CHO cells; also called mAb316P
B2: H1M300N (antibody, V domains shown)
VH: EMQLVESGGGLVQPGGSLRLSCAASGFTFSSHWMKWVRQAPGKGLEWVANINQDGSEKYYVDSVKGRFTISRDNAKNSLFLQMNSLRAEDTAVYYCARDIVLMVYDMDYYYYGMDVWGQGTTVTVSS
VL: not shown
notes: Fully human version made in CHO cells

Experiments:
[1] = target: T1, mouse PCSK9, myc-myc-his tagged (mouse, UniProt Q80W65 35-694); experiment: competition ELISA vs EGF-A, pH 7.2
T1 construct: also called mPCSK9-mmh; mPCSK9
Procedure: (§1) Briefly, hLDLR-ecto, hLDLR EGF-A-hFc or hLDLR EGF-AB-hFc, each at 2 μg/ml, was coated on a 96-well plate in PBS buffer overnight at 4° C., and nonspecific binding sites blocked with BSA. […] The equilibrated sample solutions were transferred to receptor or receptor fragment coated plates.

[2] = target: T2, rat (Rattus norvegicus) PCSK9, myc-myc-his tagged (rat (Rattus norvegicus), UniProt P59996 31-691); experiment: competition ELISA vs EGF-A, pH 7.2
T2 construct: also called rPCSK9-mmh; rPCSK9
Procedure: as §1

[3] = target: T3, tagged rhesus monkey (Macaca mulata) PCSK9 (rhesus monkey (Macaca mulata), UniProt A8T666 31-692); experiment: competition ELISA vs EGF-A, pH 7.2
T3 construct: also called mmPCSK9-mmh; mmPCSK9
Procedure: as §1

[4] = target: T4, cynomolgus monkey (Macaca fascicularis) PCSK9, myc-myc-his tagged (cynomolgus monkey (Macaca fascicularis), UniProt A8T662 31-692 (Macaca nemestrina entry), limits assumed); experiment: competition ELISA vs EGF-A, pH 7.2
T4 construct: also called mfPCSK9-mmh; mfPCSK9
Procedure: as §1

Human PCSK9-myc-myc-his [5] = target: T5, Human PCSK9-myc-myc-his (human, UniProt Q8NBP7 31-692); experiment: competition ELISA vs EGF-A, pH 7.2
T5 construct: also called hPCSK9-mmh; hPCSK9
Procedure: as §1

[6] = target: T6, his-tagged Syrian golden hamster (Mesocricetus auratus) PCSK9 (Syrian golden hamster (Mesocricetus …)); experiment: competition ELISA vs EGF-A, pH 7.2
T6 construct: also called maPCSK9-h; maPCSK9
T6 chain: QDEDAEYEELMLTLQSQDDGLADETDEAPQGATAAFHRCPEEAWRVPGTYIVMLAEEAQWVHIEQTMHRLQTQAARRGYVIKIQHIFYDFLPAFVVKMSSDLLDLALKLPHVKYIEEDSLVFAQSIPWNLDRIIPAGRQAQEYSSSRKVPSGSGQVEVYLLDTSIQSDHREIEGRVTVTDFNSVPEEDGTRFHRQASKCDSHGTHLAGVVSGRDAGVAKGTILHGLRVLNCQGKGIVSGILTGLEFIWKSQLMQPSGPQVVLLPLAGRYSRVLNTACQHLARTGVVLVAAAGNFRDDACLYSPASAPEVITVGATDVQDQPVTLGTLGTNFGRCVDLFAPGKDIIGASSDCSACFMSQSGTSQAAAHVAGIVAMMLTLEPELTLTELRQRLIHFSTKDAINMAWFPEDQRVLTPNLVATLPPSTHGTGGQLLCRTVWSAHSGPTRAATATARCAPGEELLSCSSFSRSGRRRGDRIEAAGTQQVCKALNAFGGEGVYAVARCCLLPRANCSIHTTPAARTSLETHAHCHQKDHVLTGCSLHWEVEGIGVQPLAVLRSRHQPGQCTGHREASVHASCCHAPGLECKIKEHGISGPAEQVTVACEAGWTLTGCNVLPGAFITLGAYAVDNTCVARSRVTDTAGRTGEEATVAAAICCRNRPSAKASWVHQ
Procedure: as §1

[7] = target: T4, cynomolgus monkey (Macaca fascicularis) …; experiment: SPR, mAb amine-coupled, 37C, pH 7.4
Source text: (§2) Briefly, mAbs were immobilized onto BIACORE™ CM5 sensor chips via amine coupling.

Human PCSK9-myc-myc-his [8] = target: T5, Human PCSK9-myc-myc-his; experiment: SPR, mAb amine-coupled, 37C, pH 7.4
Source text: as §2

hPCSK9(D374Y)-mmh [9] = target: T7, hPCSK9(D374Y)-mmh (human, UniProt Q8NBP7 31-692); experiment: SPR, mAb amine-coupled, 37C, pH 7.4
T7 construct: also called hPCSK(D374Y)-mmh
Source text: as §2

hPCSK9(V380M) = target: T8, hPCSK9(V380M) (human, UniProt Q8NBP7 31-692); experiment: SPR, mAb captured, 25C;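 note: antibodies held on a sensor chip bearing chemically coupled F(ab′)2 anti-human IgG as the capture surface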
T8 construct: mmh-tagged variant hPCSK9
Source text: (§3) Each selected antibody was captured on a F(ab′)2 anti-hIgG surface created through direct chemical coupling to a BIACORE™ chip to form a captured antibody surface.

hPCSK9(F216L) = target: T9, hPCSK9(F216L) (human, UniProt Q8NBP7 31-692); experiment: SPR, mAb captured, 25C;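 note: antibodies held on a sensor chip bearing chemically coupled F(ab′)2 anti-human IgG as the capture surface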
T9 construct: mmh-tagged variant hPCSK9
Source text: as §3

hPCSK9(D343R) = target: T10, hPCSK9(D343R) (human, UniProt Q8NBP7 31-692); experiment: SPR, mAb captured, 25C;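 note: antibodies held on a sensor chip bearing chemically coupled F(ab′)2 anti-human IgG as the capture surface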
T10 construct: mmh-tagged variant hPCSK9
Source text: as §3

Human PCSK9-myc-myc-his [10] = target: T5, Human PCSK9-myc-myc-his; experiment: SPR, antigen captured at high density, pH 7.4, 25C
Human PCSK9-myc-myc-his [11] = target: T5, Human PCSK9-myc-myc-his; experiment: competition ELISA vs EGF-AB-hFc, pH 7.2
Procedure: as §1

[12] = target: T1, mouse PCSK9, myc-myc-his tagged; experiment: cell-based or functional assay
[13] = target: T2, rat (Rattus norvegicus) PCSK9, …; experiment: cell-based or functional assay
[14] = target: T4, cynomolgus monkey (Macaca fascicularis) …; experiment: cell-based or functional assay
Human PCSK9-myc-myc-his [15] = target: T5, Human PCSK9-myc-myc-his; experiment: cell-based or functional assay
[16] = target: T6, his-tagged Syrian golden hamster …; experiment: cell-based or functional assay
hPCSK9(D374Y)-mmh [17] = target: T7, hPCSK9(D374Y)-mmh; experiment: cell-based or functional assay
hPCSK9(D374Y)-mmh [18] = target: T7, hPCSK9(D374Y)-mmh; experiment: competition ELISA vs EGF-AB-hFc, pH 5.5
Procedure: as §1

Human PCSK9-myc-myc-his [19] = target: T5, Human PCSK9-myc-myc-his; experiment: SPR, antigen captured at high density, pH 5.5, 25C
Human PCSK9-myc-myc-his [20] = target: T5, Human PCSK9-myc-myc-his; experiment: competition ELISA vs EGF-A-hFc, pH 5.5
Procedure: as §1

T1 sequence (Q80W65 35-694 limits assumed): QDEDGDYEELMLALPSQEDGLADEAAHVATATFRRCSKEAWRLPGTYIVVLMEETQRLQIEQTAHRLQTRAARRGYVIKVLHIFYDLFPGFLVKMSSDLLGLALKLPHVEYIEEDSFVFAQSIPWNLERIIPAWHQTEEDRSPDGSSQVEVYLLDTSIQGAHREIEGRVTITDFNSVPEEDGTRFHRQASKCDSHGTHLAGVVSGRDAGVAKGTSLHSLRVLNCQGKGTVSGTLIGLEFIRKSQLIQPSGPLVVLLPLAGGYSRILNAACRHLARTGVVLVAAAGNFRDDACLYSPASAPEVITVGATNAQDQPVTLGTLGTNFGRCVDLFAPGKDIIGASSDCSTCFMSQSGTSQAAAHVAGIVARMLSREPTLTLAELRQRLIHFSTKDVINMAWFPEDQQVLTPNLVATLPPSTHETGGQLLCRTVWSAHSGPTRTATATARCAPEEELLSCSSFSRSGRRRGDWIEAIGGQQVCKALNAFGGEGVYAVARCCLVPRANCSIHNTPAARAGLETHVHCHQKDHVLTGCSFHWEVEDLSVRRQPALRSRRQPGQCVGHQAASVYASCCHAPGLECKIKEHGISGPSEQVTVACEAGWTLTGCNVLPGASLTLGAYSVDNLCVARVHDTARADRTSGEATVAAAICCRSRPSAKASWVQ
T4 sequence (A8T662 31-692 limits assumed): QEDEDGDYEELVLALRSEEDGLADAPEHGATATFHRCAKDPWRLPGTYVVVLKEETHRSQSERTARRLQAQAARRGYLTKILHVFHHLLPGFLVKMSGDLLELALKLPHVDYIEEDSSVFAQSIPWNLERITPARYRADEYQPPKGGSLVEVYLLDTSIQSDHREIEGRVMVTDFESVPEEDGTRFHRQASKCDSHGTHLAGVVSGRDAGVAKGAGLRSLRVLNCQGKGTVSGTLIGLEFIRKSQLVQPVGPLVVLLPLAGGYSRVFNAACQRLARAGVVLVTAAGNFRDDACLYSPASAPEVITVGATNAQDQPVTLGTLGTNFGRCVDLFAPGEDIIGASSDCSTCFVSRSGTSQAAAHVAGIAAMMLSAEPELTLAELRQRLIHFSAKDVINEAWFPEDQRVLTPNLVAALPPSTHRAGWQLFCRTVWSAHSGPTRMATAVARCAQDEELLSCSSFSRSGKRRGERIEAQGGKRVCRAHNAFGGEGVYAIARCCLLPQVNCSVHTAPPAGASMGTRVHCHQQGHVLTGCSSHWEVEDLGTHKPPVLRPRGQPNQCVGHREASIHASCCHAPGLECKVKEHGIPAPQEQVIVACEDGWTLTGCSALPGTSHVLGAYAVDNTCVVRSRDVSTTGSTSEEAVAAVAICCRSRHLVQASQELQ
T2 sequence (P59996 31-691 limits assumed): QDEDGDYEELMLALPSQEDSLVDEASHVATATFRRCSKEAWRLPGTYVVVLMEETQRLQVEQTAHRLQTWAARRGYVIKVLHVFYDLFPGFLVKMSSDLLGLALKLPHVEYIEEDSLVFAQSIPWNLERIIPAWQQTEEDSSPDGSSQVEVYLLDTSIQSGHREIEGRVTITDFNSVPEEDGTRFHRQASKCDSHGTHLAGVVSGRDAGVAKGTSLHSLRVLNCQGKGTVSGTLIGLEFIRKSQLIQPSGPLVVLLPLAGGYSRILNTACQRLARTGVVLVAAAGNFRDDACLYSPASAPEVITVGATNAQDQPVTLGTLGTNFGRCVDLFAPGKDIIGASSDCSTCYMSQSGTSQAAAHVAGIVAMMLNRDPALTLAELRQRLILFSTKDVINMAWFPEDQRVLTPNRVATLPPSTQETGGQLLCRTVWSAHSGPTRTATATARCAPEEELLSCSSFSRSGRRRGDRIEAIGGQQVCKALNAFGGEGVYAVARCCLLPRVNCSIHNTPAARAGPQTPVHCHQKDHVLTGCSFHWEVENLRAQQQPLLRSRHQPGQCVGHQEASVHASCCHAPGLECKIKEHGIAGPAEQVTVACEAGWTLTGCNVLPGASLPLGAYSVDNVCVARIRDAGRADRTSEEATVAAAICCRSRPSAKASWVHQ
T3 sequence (A8T666 31-692 limits assumed): as the sequence (A8T662 31-692 limits assumed) above, with A607P, E639K counted along it

Binder | IC50 [1] [nM] | IC50 [2] [nM] | IC50 [3] [nM] | IC50 [4] [nM] | IC50 (Human PCSK9-myc-myc-his [5]) [nM] | IC50 [6] [nM] | Kd [7] [nM] | T1/2 [7] [min] | Kd (Human PCSK9-myc-myc-his [8]) [nM] | T1/2 (Human PCSK9-myc-myc-his [8]) [min] | Kd (hPCSK9(D374Y)-mmh [9]) [nM] | T1/2 (hPCSK9(D374Y)-mmh [9]) [min] | Kd (hPCSK9(V380M)) [nM] | T1/2 (hPCSK9(V380M)) [min] | Kd (hPCSK9(F216L)) [nM] | T1/2 (hPCSK9(F216L)) [min] | Kd (hPCSK9(D343R)) [nM] | T1/2 (hPCSK9(D343R)) [min] | Kd (Human PCSK9-myc-myc-his [10]) [nM] | T1/2 (Human PCSK9-myc-myc-his [10]) [min] | also measured
B1 | 0.305 | 2.66 | < 0.25 | 0.075 | < 0.125 | 0.349 | 3.77 | 11 | 4 | 9 | 6.66 | 4 | 0.48 | 63 | 1.83 | 32 | 7.88 | 6 | 0.191 | 74 | IC50 (Human PCSK9-myc-myc-his [11]): < 0.125 nM; IC50, LDL uptake in HepG2 cells [12]: 21.2 nM; IC50, LDL uptake in HepG2 cells [13]: 27.7 nM; IC50, LDL uptake in HepG2 cells [14]: 14.7 nM; IC50, LDL uptake in HepG2 cells (Human PCSK9-myc-myc-his [15]): 14.1 nM; IC50, LDL uptake in HepG2 cells [16]: 14.4 nM; IC50, LDL uptake in HepG2 cells (hPCSK9(D374Y)-mmh [17]): 2.1 nM; IC50 (hPCSK9(D374Y)-mmh [18]): 1.14 nM; Kd (Human PCSK9-myc-myc-his [19]): 0.144 nM; T1/2 (Human PCSK9-myc-myc-his [19]): 83 min; IC50 (Human PCSK9-myc-myc-his [20]): < 0.125 nM
B2 | > 100 | > 100 | 0.46 | 0.473 | 0.182 | > 100 | 4.81 | 8 | 2.47 | 20 | 2.61 | 14 | 2.82 | 28 | 0.99 | 121 | 1.18 | 89 | 0.065 | 507 | IC50 (Human PCSK9-myc-myc-his [11]): < 0.125 nM; IC50, LDL uptake in HepG2 cells [12]: > 500 nM; IC50, LDL uptake in HepG2 cells [13]: > 500 nM; IC50, LDL uptake in HepG2 cells [14]: 13.4 nM; IC50, LDL uptake in HepG2 cells (Human PCSK9-myc-myc-his [15]): 12.6 nM; IC50, LDL uptake in HepG2 cells [16]: > 500 nM; IC50, LDL uptake in HepG2 cells (hPCSK9(D374Y)-mmh [17]): 11 nM; IC50 (hPCSK9(D374Y)-mmh [18]): 3.94 nM; Kd (Human PCSK9-myc-myc-his [19]): 1.18 nM; T1/2 (Human PCSK9-myc-myc-his [19]): 26 min; IC50 (Human PCSK9-myc-myc-his [20]): 0.538 nM
